Laboratory results taken from publication PMC5389548.

biological target: thrombin (human, UniProt P00734;P00734 328-363;364-622); assay: microarray sandwich fluorescence

Row | Binder | Kd [nM]
1 | GGTTGGTGTGGTTGG (structured_DNA, ten 2'F-ANA, positions lost in text) [sequence 11] | 53 ± 16
2 | GGTTGGTGTGGTTGG (structured_DNA, 2'F-ANA, positions lost in text) [sequence 3] | 39 ± 10
3 | GGTTGGTGTGGTTGG (structured_DNA, eight 2'F-ANA, positions lost in text) [sequence 6] | 29 ± 2.7
4 | GGTTGGTGTGGTTGG (structured_DNA, 2'F-ANA at T3, G8, T12; full pattern lost in text) [sequence 1] | 28 ± 1.6
5 | GGTTGGTGTGGTTGG (structured_DNA, 2'F-araT, positions lost in text) [sequence 15] | 85 ± 21
6 | GGTTGGTGTGGTTGG (structured_DNA, 2'F-ANA, positions lost in text) [sequence 4] | 41 ± 3.7
7 | GGTTGGTGTGGTTGG (structured_DNA, 2'F-ANA at T3, G8, T12; full pattern lost in text) [sequence 2] | 28 ± 1.2
8 | GGTTGGTGTGGTTGG (structured_DNA) [TBA1 control] | 93 ± 23
9 | GGTTGGTGTGGTTGG (structured_DNA, ten 2'F-ANA, positions lost in text) [sequence 10] | 45 ± 14
10 | GGTTGGTGTGGTTGG (structured_DNA, 2'F-araT, positions lost in text) [sequence 16] | 117 ± 44
